This note sets out measurements from patent publication US20130330324A1 (Novartis, published 2013).

Changes are numbered by the printed parent chain.

Test [1] concerns the target T1, Human HER3, endogenous, on human cancer cell lines (human, UniProt P21860 20-1342). Put plainly: cell-based or functional assay.
For test [2], the target named is T1, Human HER3, endogenous, on human cancer …. Put plainly: cell-based or functional assay. This is another data set of the same source.
The target is the same in test [3]. Put plainly: cell-based or functional assay. This is another data set of the same source.
Test [4] has the same target. In words: FACS titration on SK-Br-3 cells.
Test [5] concerns the target T2, Hu HER3 (CD33-[Human HER3, residues 20-640]-TAG) (human, UniProt P21860 20-640).
T2 construct: N-terminal CD33 leader is a secretion signal and is left out; also called hu HER3-Tag; HER3-Tag; not shown: C-terminal TAG (e.g. FLAG TAG)
In words: solution equilibrium titration (SET), IgG.

For test [6], the target named is T3, Cyno HER3 (CD33-[Cyno HER3, residues 20-643]-TAG) (cynomolgus, UniProt G7PIG5 20-643).
T3 construct: range 20-643; CD33 leader left out as signal; also called cy HER3-Tag; not shown: C-terminal TAG (e.g. FLAG TAG)
Put plainly: solution equilibrium titration (SET), IgG.

For test [7], the target named is T4, Mu HER3 (CD33-[Murine HER3, residues 20-643]-TAG) (mouse, UniProt Q61526 20-643).
T4 construct: range 20-643; CD33 leader left out as signal; also called mu HER3-Tag; not shown: C-terminal TAG (e.g. FLAG TAG)
In words: solution equilibrium titration (SET), IgG.

Test [8] has as its target T5, Rat HER3 (CD33-[Rat HER3, residues 20-643]-TAG) (rat, UniProt Q62799 20-643).
T5 construct: range 20-643; CD33 leader left out as signal; also called ra HER3-Tag; not shown: C-terminal TAG (e.g. FLAG TAG)
In words: solution equilibrium titration (SET), IgG.

Test [9] deals with T6, HER3 K267A (CD33-[Human HER3, residues 20-640, K267A]-TAG) (human, UniProt P21860 20-640).
T6 construct: CD33 leader left out as signal; also called HER3 K267A-Tag; not shown: C-terminal TAG
In words: ELISA titration, mutant HER3-Tag coated, antibody titrated, OD450. (In general: An ELISA detects its analyte on a solid surface through an enzyme-linked reagent.)

Test [10] concerns the target T7, HER3 L268A (CD33-[Human HER3, residues 20-640, L268A]-TAG) (human, UniProt P21860 20-640).
T7 construct: CD33 leader left out as signal; also called HER3 L268A-Tag; not shown: C-terminal TAG
The description is as above.

Test [11] deals with T2, Hu HER3 (CD33-[Human HER3, residues …). In words: ELISA titration, wild-type HER3-Tag coated, antibody titrated, OD450.

B1: MOR09824 (antibody, human IgG1, kappa, V domains shown)
VH: QVQLVESGGGLVQPGGSLRLSCAASGFTFSSYAMSWVRQAPGKGLEWVSVISAWGHVKYYADSVKGRFTISRDNSKNTLYLQMNSLRAEDTAVYYCARWGDEGFDIWGQGTLVTVSS
VL: DIQMTQSPSSLSASVGDRVTITCRASQGISNWLAWYQQKPGKAPKLLIYGASSLQSGVPSRFSGSGSGTDFTLTISSLQPEDFAVYYCQQYSSFPTTFGQGTKVEIKR
notes: tested as IgG
For the molecule B1, in test [1], the “MCF7 pHER3 % inhibition” value was found to be 91%, the “MCF7 pHER3 IC50” value came to 103 pM, the “SK-Br-3 pHER3 % inhibition” value was 64% and the “SK-Br-3 pHER3 IC50” value was determined as 110 pM. Further, in test [2], the “BT-474 pAkt (S473) % inhibition” value came out at 46%, the “SK-Br-3 pAkt (S473) % inhibition” value came out at 93% and the “SK-Br-3 pAkt (S473) IC50” value came out at 62 pM. In test [3], the “BT-474 proliferation % inhibition at 10 µg/ml IgG” value was found to be 36.8%, the “MCF7 (neuregulin stimulated) proliferation % inhibition at 10 µg/ml IgG” value stood at 82% and the “SK-Br-3 proliferation % inhibition at 10 µg/ml IgG” value worked out at 33%. The 50% effective concentration (EC50) – broadly, the concentration that produces a half-maximal response – in test [4] worked out at 0.324 nM. Also, the affinity in [5], expressed as Kd, was 0.003 nM. The Kd (in general, the concentration at which binding is half-saturated) in [6] is 0.003 nM. In test [7], the Kd was 0.002 nM. Also, in test [8], the Kd was determined as 0.007 nM.

B2: MOR10703 (antibody, human IgG1, kappa, V domains shown)
VH: B1 VH with Q1E, V5L, V50A, S52N, A53S, W54Q, H56K, V57S, K58T
VL: B1 VL with V85T
notes: tested as IgG
Take B2: in test [1], the “MCF7 pHER3 % inhibition” value was 80%, the “MCF7 pHER3 IC50” value is 333 pM, the “SK-Br-3 pHER3 % inhibition” value was found to be 69% and the “SK-Br-3 pHER3 IC50” value is 167 pM. In [2], the “BT-474 pAkt (S473) % inhibition” value came out at 62%, the “MCF7 pAkt (S473) IC50” value was 449 pM, the “SK-Br-3 pAkt (S473) % inhibition” value was determined as 89% and the “SK-Br-3 pAkt (S473) IC50” value came to 70 pM. Also, in test [3], the “BT-474 proliferation % inhibition at 10 µg/ml IgG” value was found to be 41.6%, the “MCF7 (neuregulin stimulated) proliferation % inhibition at 10 µg/ml IgG” value was determined as 81% and the “SK-Br-3 proliferation % inhibition at 10 µg/ml IgG” value is 35%. The molecule further registered an EC50 in test [4] of 2.45 nM. Further, binding in [5] was characterised by a dissociation constant (Kd) of 0.026 nM. This molecule also yielded a Kd in test [6] of 0.023 nM. Further, the Kd in test [7] turned out to be 0.02 nM. The molecule also registered a Kd in test [8] of 0.04 nM. Further, the binding result in test [9] is “no binding”. In test [10], the binding result was “no binding”. Also, the EC50 (read off the curve) (in general, the concentration giving half of the maximal effect) in [11] is around 0.3 nM.
